{
  "source": "patent US20170283479",
  "key": {"[1]": {"molecular_target": "insulin analogs where the A-chain is derived from the native insulin sequence"}, "[2]": {"molecular_target": "analogs where the A-chain is derived from the sequence of IGF-1"}},
  "data": [
    {"protein": "rDNA rat insulin-specific degrading enzyme (IDE) (protein) MNNPAIQRIEDHIVKSPEDKREYRGLELANGIKVLLISDPTTDKSSAALDVHIGSLSDPPNIPGLSHFCEHMLFLGTKKYPKENEYSQFLSEHAGSSNAFTSGEHTNYYFDVSHEHLEGALDRFAQFFLCPLFDASCKDREVNAVDSEHEKNVMNDAWRLFQLEKATGNPKHPFSKFGTGNKYTLETRPNQEGIDVREELLKFHSTYYSSNLMAICVLGRESLDDLTNLVVKLFSEVENKNVPLPEFPEHPFQEEHLKQLYKIVPIKDIRNLYVTFPIPDLQQYYKSNPGHYLGHLIGHEGPGSLLSELKSKGWVNTLVGGQKEGARGFMFFIINVDLTEEGLLHVEDIILHMFQYIQKLRAEGPQEWVFQECKDLNAVAFRFKDKERPRGYTSKIAGKLHYYPLNGVLTAEYLLEEFRPDLIDMVLDKLRPENVRVAIVSKSFEGKTDRTEQWYGTQYKQEAIPEDVIQKWQNADLNGKFKLPTKNEFIPTNFEILALEKDATPYPALIKDTAMSKLWFKQDDKFFLPKACLNFEFFSPFAYVDPLHCNMAYLYLELLKDSLNEYAYAAELAGLSYDLQNTIYGMYLSVKGYNDKQPILLKKITEKMATFEIDKKRFEIIKEAYMRSLNNFRAEQPHQHAMYYLRLLMTEVAWTKDELKEALDDVTLPRLKAFIPQLLSRLHIEALLHGNITKQAALGVMQMVEDTLIEHAHTKPLLPSQLVRYREVQLPDRGWFVYQRRNEVHNNCGIEIYYQTDMQSTSENMFLELFCQIISEPCFNTLRTKEQLGYIVFSGPRRANGIQGLRFIIQSEKPPHYLESRVEAFLITMEKAIEDMTEEAFQKHIQALAIRRLDKPKKLSAECAKYWGEIISQQYNYDRDNIEVAYLKTLSKDDIIKFYKEMLAVDAPRRHKVSVHVLAREMDSCPVVGEFPSQNDINLSEAPPLPQPEVIHNMTEFKRGLPLFPLVKPHINFMAAKL", "values": [
      {"measurement": "cleavage by IDE (HPLC and residual insulin receptor phosphorylation activity)", "setting": "[1]", "result": "extremely robust and easily detected"},
      {"measurement": "cleavage by IDE (HPLC and residual insulin receptor phosphorylation activity)", "setting": "[2]", "result": "appear to be extremely resistant to proteolysis"}
    ]}
  ]
}
